Experimental data published in publication PMC8385042.

Target: TIR domain of Toll-like receptor 1 (TLR1-TIR), residues 625-786 of human TLR1 (human) (UniProt Q15399)
Assay: dynamic light scattering; 100 uM TLR1-TIR, 10 °C, cytoplasm-like buffer, threefold molar excess of ZnCl2 (1:3 protein to metal)

stoichiometry N: 5
Substance: TIR domain of Toll-like receptor 1 (TLR1-TIR), residues 625-786 of human TLR1 (from UniProt Q15399 625-786) (domain or fragment)
